Our source for the ELISA signal to background ratio, Geo Mean minus Geo Mean of secondary antibody alone (FACS) and EC50 values is patent US20140322220A1.

Experiment [1] has as its target hFGFR2β-Fc (IIIc) (human) (UniProt P21802). Description: ELISA, 1 ug/ml Fab on coated antigen; grade of signal to background (+ 2-3, ++ 3-5, +++ >5).
Experiment [2] deals with mFGFR2β-Fc (IIIc) (murine) (UniProt P21803). The description is as above.
In experiment [3] the target is human FGFR2 on human cancer cell lines (human) (UniProt P21802). Nature of the experiment: FACS, 5 ug/ml, SNU16 cells.
Experiment [4] has the same target. Description: FACS, 5 ug/ml, MFE280 cells.
Experiment [5] has the same target. Description: FACS titration 0.1-100 nM, SNU16 cells.
Experiment [6] has the same target. Description: FACS, 5 ug/ml, NCI-N87 cells.
Experiment [7] shares this target. Description: FACS, 5 ug/ml, HEC1b cells.
For experiment [8], the target named is murine FGFR2 on murine cancer cell lines (murine) (UniProt P21803). Description: FACS, 5 ug/ml, 4T1 cells.
The target of experiment [9] is human FGFR2 on human cancer cell lines (human) (UniProt P21802). Nature of the experiment: FACS titration 0.1-100 nM, MFM223 cells.
Experiment [10] shares this target. Nature of the experiment: FACS, 5 ug/ml, KATOIII cells.
For experiment [11], the target named is murine FGFR2 on murine cancer cell lines (murine) (UniProt P21803). Nature of the experiment: FACS titration 0.1-100 nM, 4T1 cells.

Some results are limits rather than exact numbers.

B1: M048-D01 (soluble Fab) (Fab, V domains shown)
VH: EVQLLESGGGLVQPGGSLRLSCAASGFTFSSYAMSWVRQAPGKGLEWVSAISGSGTSTYYADSVKGRFTISRDNSKNTLYLQMNSLRAEDTAVYYCARVRYNWNHGDWFDPWGQGTLVTVSS
VL: QSVLTQPPSASGTPGQRVTISCSGSSSNIGNNYVSWYQQLPGTAPKLLIYENYNRPAGVPDRFSGSKSGTSASLAISGLRSEDEADYYCSSWDDSLNYWVFGGGTKLTVL
Consider B1, for which the ELISA signal to background ratio in [1] and in experiment [2] was > 5 throughout.

B2: M021-H02-hIgG1 (antibody, V domains shown)
VH: EVQLLESGGGLVQPGGSLRLSCAASGFTFSNYGIHWVRQAPGKGLEWVAVISYDGSNKYYADSVKGRFTISRDNSKNTLYLQMNSLRAEDTAMYYCARDSSSAEDYWGQGTLVTVSS
VL: QSVLTQPPSASGTPGQRVTISCSGSSSNTGSNTVNWYQQLPGTAPKLLIYRNNQRPSGVPDRFSGSKSGTSASLAISGLRSEDEADYYCETWDSNTRGVVFGGGTKLTVL
As to B2, the Geo Mean minus Geo Mean of secondary antibody alone (FACS) was 100 to 1000 geomean in experiment [3]; 10 to 100 geomean in experiment [4]; 10 to 100 geomean in experiment [6]; 100 to 1000 geomean in experiment [7]; 100 to 1000 geomean in experiment [8]; > 10000 geomean in [10]. In addition, the EC50 in [5] turned out to be 89.5 nM; in [9] it was 16.9 nM; in experiment [11], 20.8 nM.

B3: M021-H02 (soluble Fab) (Fab, V domains shown)
VH: B2 VH
VL: B2 VL
Regarding B3, the ELISA signal to background ratio in experiment [1] and in experiment [2] was > 5 each time.
